Tests used:
Assay in all cases: pull-down; His:BPM proteins kept on Ni-NTA agarose beads, incubated with eluted GST-tagged proteins in 0.1 M Tris pH 7.5, 150 mM NaCl, 0.5% NP-40, PMSF, 2 h at 4°C, three washes; blots with anti-GST and anti-His
Details in all cases: both partners purified
[1] = biological target: T1, His:BPM1 (Arabidopsis thaliana, UniProt Q8L765 1-407)
T1 construct: BPM1, MATH-BTB/POZ protein, Arabidopsis thaliana; cloned into pET21b (NdeI/XhoI); pET21b usually adds a C-terminal His6 tag (surmised); also called His-tagged BPM1; source: E. coli, purified on Ni-NTA agarose beads (remained on the beads)
T1 sequence (looked up): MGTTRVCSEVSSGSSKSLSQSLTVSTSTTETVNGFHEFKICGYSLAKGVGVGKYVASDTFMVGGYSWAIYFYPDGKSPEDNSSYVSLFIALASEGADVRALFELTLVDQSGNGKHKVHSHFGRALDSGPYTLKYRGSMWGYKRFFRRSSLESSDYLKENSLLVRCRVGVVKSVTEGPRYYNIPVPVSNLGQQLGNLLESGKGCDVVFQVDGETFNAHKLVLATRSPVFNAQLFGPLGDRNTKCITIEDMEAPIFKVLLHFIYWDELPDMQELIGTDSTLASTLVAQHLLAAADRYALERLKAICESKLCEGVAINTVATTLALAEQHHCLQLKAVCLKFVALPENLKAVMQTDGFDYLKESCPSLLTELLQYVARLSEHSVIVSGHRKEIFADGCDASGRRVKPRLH

[2] = biological target: T2, His:BPM3 (Arabidopsis thaliana, UniProt O22286 1-408)
T2 construct: BPM3, MATH-BTB/POZ protein, Arabidopsis thaliana; cloned into pET21b (NdeI/XhoI); pET21b usually adds a C-terminal His6 tag (surmised); also called His-tagged BPM3; source: E. coli, purified on Ni-NTA agarose beads (remained on the beads)
T2 sequence (looked up): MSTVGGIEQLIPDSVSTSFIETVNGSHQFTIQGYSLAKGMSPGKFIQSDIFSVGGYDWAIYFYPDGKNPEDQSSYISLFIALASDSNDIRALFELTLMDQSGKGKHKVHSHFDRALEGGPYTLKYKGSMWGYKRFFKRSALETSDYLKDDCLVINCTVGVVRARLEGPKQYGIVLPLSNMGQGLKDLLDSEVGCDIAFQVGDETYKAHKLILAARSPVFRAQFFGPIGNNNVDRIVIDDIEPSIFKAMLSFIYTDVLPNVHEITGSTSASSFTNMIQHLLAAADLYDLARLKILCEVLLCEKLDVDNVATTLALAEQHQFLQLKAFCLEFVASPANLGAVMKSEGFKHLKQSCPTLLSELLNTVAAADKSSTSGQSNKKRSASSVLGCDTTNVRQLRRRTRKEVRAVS

[3] = biological target: T3, His:BPM5 (Arabidopsis thaliana, UniProt Q1EBV6 1-410)
T3 construct: BPM5, MATH-BTB/POZ protein, Arabidopsis thaliana; cloned into pET21b (NdeI/XhoI); pET21b usually adds a C-terminal His6 tag (surmised); also called His-tagged BPM5; source: E. coli, purified on Ni-NTA agarose beads (remained on the beads)
T3 sequence (looked up): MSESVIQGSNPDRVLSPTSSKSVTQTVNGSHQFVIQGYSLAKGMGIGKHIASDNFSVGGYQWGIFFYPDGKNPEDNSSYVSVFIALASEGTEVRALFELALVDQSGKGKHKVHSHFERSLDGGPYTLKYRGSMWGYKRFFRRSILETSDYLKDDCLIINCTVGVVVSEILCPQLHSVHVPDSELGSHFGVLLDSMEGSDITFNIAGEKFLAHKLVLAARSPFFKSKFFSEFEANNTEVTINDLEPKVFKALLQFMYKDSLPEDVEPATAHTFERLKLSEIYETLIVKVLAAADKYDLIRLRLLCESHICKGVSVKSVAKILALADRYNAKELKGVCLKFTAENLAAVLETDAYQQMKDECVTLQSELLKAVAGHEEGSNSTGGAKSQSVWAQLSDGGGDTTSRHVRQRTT

Measured: binding result

B1: GST:MYB1 (natural protein)
chain: not shown
notes: MYB1, Arabidopsis thaliana, At3g09230, 393 AA; cDNA; GST fusion ~69.7 kDa; Two GST constructs of MYB1 are described (pDEST15 by Gateway; pHB2-GST from the clone DKLAT3G09230); also called GST-tagged MYB1; source: E. coli, purified (glutathione agarose beads), eluted; not shown: GST, N-terminal, kept
binds: [1] | [2] | [3]

B2: GST:MYB25 (natural protein)
chain: not shown
notes: MYB25, Arabidopsis thaliana, At2g39880, 367 AA; cDNA in pDEST15; GST fusion ~67.8 kDa; also called GST-tagged MYB25; source: E. coli, purified (glutathione agarose beads), eluted; not shown: GST, N-terminal, kept
binds: [1] | [2] | [3]
